Patent US20240368565A1, “COMPLEMENTATION-BASED TAGS AND REPORTERS FOR DUAL-MODALITY LABELING” (Promega Corporation, priority 2023, published 2024)
Peptide text beside a SMILES is read from it. * marks the point of attachment. Biotin = O=C1N[C@H]2[C@H](CS[C@H]2CCCCC(=O)*)N1

Tests used:
Assay in all cases: biochemical
Type in all cases: binding
[1] = target: HaloTag[22-297](M2F + K140E)-12xGly/Ser-LgBiT-3xGly/Ser-6xHis (Rhodococcus rhodochrous, UniProt P0A3G2, A155T/A167V/A172T/A224E/C128F/C176G/D78G/E257K/H272N/K175M/K195N/L47V/L88M/N227D/S58T/T264A/Y273L/Y87F); settings: biotinylated peptide on streptavidin probes, PBST, 25° C.
[2] = target: HaloTag[22-297](M2F + D53G + K140E)-12xGly/Ser-LgBiT-3xGly/Ser-6xHis (Rhodococcus rhodochrous, UniProt P0A3G2, A155T/A167V/A172T/A224E/C128F/C176G/D73G/D78G/E257K/H272N/K175M/K195N/L47V/L88M/N227D/S58T/T264A/Y273L/Y87F)
LgBiT-6xHis = LgBiT-6xHis (Oplophorus gracilirostris, UniProt Q9GV45, A31E/A60N/A81I/D135N/F58L/F95D/G42A/G62A/G78A/G94A/G98A/H120P/I103V/I117V/I134L/K70R/L176M/L54V/L73R/L99Q/M102E/N171T/P142E/Q151K/Q38E/Q45L/V71I/Y165I)
[3] = biotinylated peptide on streptavidin probes, PBST, 25° C.

Chain of LgBiT-6xHis (Q9GV45 28-183 with tags or gaps with the stated changes limits assumed): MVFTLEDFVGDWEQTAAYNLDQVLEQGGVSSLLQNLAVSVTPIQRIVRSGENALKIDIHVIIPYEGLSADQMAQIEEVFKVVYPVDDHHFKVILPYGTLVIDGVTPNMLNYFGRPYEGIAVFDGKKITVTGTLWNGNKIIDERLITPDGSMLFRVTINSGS

| Molecule | Koff [1] | Kon [1] [M⁻¹ s⁻¹] | further results |
| --- | --- | --- | --- |
| EIGTGFPFDPHYVEVRGGGSGVSVSGWRLFKKIS [HaloTag[3-19](L16R)-4xGly/Ser-VSHiBiT] | NA (dissociation that is too slow for the instrument to measure (limit 10^6 l/s)) | 77900 |  |
| CC[C@H](C)[C@H](NC(=O)[C@H](CCC(=O)O)NC(=O)CCCC[C@@H]1SC[C@@H]2NC(=O)N[C@@H]21)C(=O)NCC(=O)N[C@H](C(=O)NCC(=O)N[C@@H](Cc1ccccc1)C(=O)N1CCC[C@H]1C(=O)N[C@@H](Cc1ccccc1)C(=O)N[C@@H](CCCNC(=N)N)C(=O)N1CCC[C@H]1C(=O)N[C@@H](Cc1c[nH]cn1)C(=O)N[C@@H](Cc1ccc(O)cc1)C(=O)N[C@H](C(=O)N[C@@H](CCCCN)C(=O)N[C@H](C(=O)N[C@@H](CC(C)C)C(=O)NCC(=O)NCC(=O)NCC(=O)N[C@@H](CO)C(=O)NCC(=O)N[C@H](C(=O)N[C@@H](CO)C(=O)N[C@H](C(=O)N[C@@H](CO)C(=O)NCC(=O)N[C@@H](Cc1c[nH]c2ccccc12)C(=O)N[C@@H](CCCNC(=N)N)C(=O)N[C@@H](CC(C)C)C(=O)N[C@@H](Cc1ccccc1)C(=O)N[C@@H](CCCCN)C(=O)N[C@@H](CCCCN)C(=O)N[C@H](C(=O)N[C@@H](CO)C(=O)O)[C@@H](C)CC)C(C)C)C(C)C)C(C)C)C(C)C)[C@@H](C)O [HaloTag[3-19](D9R + E14K)-4xGS-VSHiBiT] (Biotin-EIGTGFPFRPHYVKVLGGGSGVSVSGWRLFKKIS-OH) |  |  | Kd [1]: 0.111 nM |
| CC[C@H](C)[C@H](NC(=O)[C@H](CCCCN)NC(=O)[C@H](CCCCN)NC(=O)[C@H](Cc1ccccc1)NC(=O)[C@H](CC(C)C)NC(=O)[C@H](CCCNC(=N)N)NC(=O)[C@H](Cc1c[nH]c2ccccc12)NC(=O)CNC(=O)[C@H](CO)NC(=O)[C@@H](NC(=O)[C@H](CO)NC(=O)[C@@H](NC(=O)CNC(=O)[C@H](CC(C)C)NC(=O)[C@@H](NC(=O)[C@H](CCC(=O)O)NC(=O)[C@@H](NC(=O)[C@H](Cc1ccc(O)cc1)NC(=O)[C@H](Cc1c[nH]cn1)NC(=O)[C@@H]1CCCN1C(=O)[C@H](CC(=O)O)NC(=O)[C@H](Cc1ccccc1)NC(=O)[C@@H]1CCCN1C(=O)[C@H](Cc1ccccc1)NC(=O)CNC(=O)[C@@H](NC(=O)CNC(=O)[C@H](CCCNC(=N)N)NC(=O)[C@H](CCC(=O)O)NC(=O)CCCC[C@@H]1SC[C@@H]2NC(=O)N[C@@H]21)[C@@H](C)O)C(C)C)C(C)C)C(C)C)C(C)C)C(=O)N[C@@H](CO)C(=O)O [HaloTag[3-19](I2R)-VSHiBiT] (Biotin-ERGTGFPFDPHYVEVLGVSVSGWRLFKKIS-OH) |  |  | Kd [2]: 0.713 nM |
| CC[C@H](C)[C@H](NC(=O)[C@H](CCCCN)NC(=O)[C@H](CCCCN)NC(=O)[C@H](Cc1ccccc1)NC(=O)[C@H](CC(C)C)NC(=O)[C@H](CCCNC(=N)N)NC(=O)[C@H](Cc1c[nH]c2ccccc12)NC(=O)CNC(=O)[C@H](CO)NC(=O)[C@@H](NC(=O)CNC(=O)[C@H](CO)NC(=O)CNC(=O)CNC(=O)CNC(=O)[C@H](CC(C)C)NC(=O)[C@@H](NC(=O)[C@H](CCC(=O)O)NC(=O)[C@@H](NC(=O)[C@H](Cc1ccc(O)cc1)NC(=O)[C@H](Cc1c[nH]cn1)NC(=O)[C@@H]1CCCN1C(=O)[C@H](CC(=O)O)NC(=O)[C@H](Cc1ccccc1)NC(=O)[C@@H]1CCCN1C(=O)[C@H](Cc1ccccc1)NC(=O)CNC(=O)[C@@H](NC(=O)CNC(=O)[C@H](CCCNC(=N)N)NC(=O)[C@H](CCC(=O)O)NC(=O)CCCC[C@@H]1SC[C@@H]2NC(=O)N[C@@H]21)[C@@H](C)O)C(C)C)C(C)C)C(C)C)C(=O)N[C@@H](CO)C(=O)O [HaloTag[3-19](I2R)-4xGly/Ser-HiBiT] (Biotin-ERGTGFPFDPHYVEVLGGGSGVSGWRLFKKIS-OH) |  |  | Kd [2]: 0.323 nM |
| ERGTGFPFDPHYVEVLRGGSGVSVSGWRLFKKIS [HaloTag[3-19](I2R + G17R)-4xGS-VSHiBiT] | NA (dissociation that is too slow for the instrument to measure (limit 10^6 l/s)) | 93300 |  |
| EIKTGFPFDPHYVKVLGGGSGVSVSGWRLFKKIS [HaloTag[3-19](G3K + E14K)-4xGS-VSHiBiT] | NA (dissociation that is too slow for the instrument to measure (limit 10^6 l/s)) | 128000 |  |
| EIKTGFPFDPHYVEVRGGGSGVSVSGWRLFKKIS [HaloTag[3-19](G3K + L16R)-4xGS-VSHiBiT] | NA (dissociation that is too slow for the instrument to measure (limit 10^6 l/s)) | 97100 |  |
| ERGTGFPFDPHYVEVLGGGSGVSVSGWRLFRRIS |  |  | Koff [2, 3]: NA (dissociation that is too slow for the instrument to measure (limit 10^6 l/s)); Kon [2, 3]: 71400 M⁻¹ s⁻¹ |
| EIGTGFPFDPHYVKVLGGGSGVSVSGWRLFKKIS [HaloTag[3-19](E14K)-4xGly/Ser-VSHiBiT] | NA (dissociation that is too slow for the instrument to measure (limit 10^6 l/s)) | 108000 |  |
| CC[C@H](C)[C@H](NC(=O)[C@H](CCCCN)NC(=O)[C@H](CCCCN)NC(=O)[C@H](Cc1ccccc1)NC(=O)[C@H](CC(C)C)NC(=O)[C@H](CCCNC(=N)N)NC(=O)[C@H](Cc1c[nH]c2ccccc12)NC(=O)CNC(=O)[C@H](CO)NC(=O)[C@@H](NC(=O)[C@H](CO)NC(=O)[C@@H](NC(=O)CNC(=O)[C@H](CO)NC(=O)CNC(=O)CNC(=O)CNC(=O)[C@H](CC(C)C)NC(=O)[C@@H](NC(=O)[C@H](CCC(=O)O)NC(=O)[C@@H](NC(=O)[C@H](Cc1ccc(O)cc1)NC(=O)[C@H](Cc1c[nH]cn1)NC(=O)[C@@H]1CCCN1C(=O)[C@H](CC(=O)O)NC(=O)[C@H](Cc1ccccc1)NC(=O)[C@@H]1CCCN1C(=O)[C@H](Cc1ccccc1)NC(=O)[C@H](CCCNC(=N)N)NC(=O)[C@@H](NC(=O)CNC(=O)[C@H](CCCNC(=N)N)NC(=O)[C@H](CCC(=O)O)NC(=O)CCCC[C@@H]1SC[C@@H]2NC(=O)N[C@@H]21)[C@@H](C)O)C(C)C)C(C)C)C(C)C)C(C)C)C(=O)N[C@@H](CO)C(=O)O [HaloTag[3-19](I2R + G5R)-4xGS-VSHiBiT] (Biotin-ERGTRFPFDPHYVEVLGGGSGVSVSGWRLFKKIS-OH) |  |  | Kd (LgBiT-6xHis): 0.11 nM |
| ERGTGFPFRPHYVEVLGGGSGVSVSGWRLFKKIS [HaloTag[3-19](I2R + D9R)-4xGS-VSHiBiT] | NA (dissociation that is too slow for the instrument to measure (limit 10^6 l/s)) | 128000 |  |
| CC[C@H](C)[C@H](NC(=O)[C@H](CCC(=O)O)NC(=O)CCCC[C@@H]1SC[C@@H]2NC(=O)N[C@@H]21)C(=O)NCC(=O)N[C@H](C(=O)NCC(=O)N[C@@H](Cc1ccccc1)C(=O)N1CCC[C@H]1C(=O)N[C@@H](Cc1ccccc1)C(=O)N[C@@H](CCCNC(=N)N)C(=O)N1CCC[C@H]1C(=O)N[C@@H](Cc1c[nH]cn1)C(=O)N[C@@H](Cc1ccc(O)cc1)C(=O)N[C@H](C(=O)N[C@@H](CCC(=O)O)C(=O)N[C@H](C(=O)N[C@@H](CC(C)C)C(=O)NCC(=O)NCC(=O)NCC(=O)N[C@@H](CO)C(=O)NCC(=O)N[C@H](C(=O)N[C@@H](CO)C(=O)N[C@H](C(=O)N[C@@H](CO)C(=O)NCC(=O)N[C@@H](Cc1c[nH]c2ccccc12)C(=O)N[C@@H](CCCNC(=N)N)C(=O)N[C@@H](CC(C)C)C(=O)N[C@@H](Cc1ccccc1)C(=O)N[C@@H](CCCCN)C(=O)N[C@@H](CCCCN)C(=O)N[C@H](C(=O)N[C@@H](CO)C(=O)O)[C@@H](C)CC)C(C)C)C(C)C)C(C)C)C(C)C)[C@@H](C)O [HaloTag[3-19](D9R)-4xGly/Ser-VSHiBiT] (Biotin-EIGTGFPFRPHYVEVLGGGSGVSVSGWRLFKKIS-OH) |  |  | Kd [1]: 0.126 nM |
